Results taken from patent US20130052198A1, “ANTI-INFLAMMATORY FACTORS” (THE GENERAL HOSPITAL CORPORATION, priority 2010, published 2013).
“Also recorded” adds a separate entry of the source.

B1: HAPLN1: Hyaluronan and proteoglycan link protein 1; purified, recombinant form (protein, UniProt P10915 16-354, looked up)
Hyaluronan and proteoglycan …: DHLSDNYTLDHDRAIHIQAENGPHLLVEAEQAKVFSHRGGNVTLPCKFYRDPTAFGSGIHKIRIKWTKLTSDYLKEVDVFVSMGYHKKTYGGYQGRVFLKGGSDSDASLVITDLTLEDYGRYKCEVIEGLEDDTVVVALDLQGVVFPYFPRLGRYNLNFHEAQQACLDQDAVIASFDQLYDAWRGGLDWCNAGWLSDGSVQYPITKPREPCGGQNTVPGVRNYGFWDKDKSRYDVFCFTSNFNGRFYYLIHPTKLTYDEAVQACLNDGAQIAKVGQIFAAWKILGYDRCDAGWLADGSVRYPISRPRRRCSPTEAAVRFVGFPDKKHKLYGVYCFRAYN
B2: MFAP5: Microfibrillar-associated protein 5, ECM glycoprotein; recombinant form tested (protein, UniProt Q13361 22-173, looked up)
Microfibrillar-associated …: IPLGVNSQRGDDVTQATPETFTEDPNLVNDPATDETVLAVLADIAPSTDDLASLSEKNTTAECWDEKFTCTRLYSVHRPVKQCIHQLCFTSLRRMYIVNKEICSRLVCKEHEAMKDELCRQMAGLPPRRLRRSNYFRLPPCENVDLQRPNGL

Experiments:
leukocytes = experiment: IFN-γ production by LPS-stimulated leukocytes, ELISA; assay type: cell-based, human
Experimental: (§1) Leukocytes were prepared from fresh whole human blood, collected and spun in the presence of Ficoll for 30 minutes at 1500×g. The mononuclear cell layer was transferred to a new tube where it was washed once with RPMI 1640. The mononuclear cells were plated at a density of 1×10^5 per well of a 96-well plate in 50 μL of RPMI 1640 per well. MSC-CM was then immediately added to each well and allowed to incubate in the presence of the mononuclear cells for 16 hours. After incubation, 50 μL of RPMI 1640 containing 10 μg/mL of LPS was added to each well and allowed to incubate for an additional 5 hours. The resultant supernatants were collected and analyzed via ELISA for human interleukin-10 (IL-10). This procedure of incubating leukocytes with MSC-CM to determine IL-10 stimulating activity will be henceforth referred to as the “IL-10 assay”.
(§2) Preparations and use of MSC-CM, Fb-CM, LPS-stimulated MSC-CM, leukocytes were as described in Examples 1-3 and the Figures. These conditioned media preparations were added to leukocyte cultures for 16 hours, after which the culture was stimulated with LPS at 10 μg/ml. The medium from this culture was collected 24 hours after LPS stimulation of leukocytes and analyzed using an IFN-γ ELISA.

[1] = tested on: human leukocytes in culture; experiment: Cytokine production (IL-10 or IFN-γ) in human leukocytes in culture; assay type: cell-based; conditions: concentrations within five orders of magnitude of 10 μg/mL
Experimental: as §1, §2

[2] = tested on: human peripheral blood mononuclear cells (PBMCs); experiment: PBMC potency assay (IL-10 assay): IL-10 secretion by LPS-stimulated PBMCs, ELISA; assay type: cell-based; conditions: recombinant molecules diluted in RPMI 1640
Text: FIG. 1: MSC conditioned medium causes peripheral blood mononuclear cells to secrete IL-10 in response to LPS, providing the basis for differential gene expression analysis to identify genes responsible for the increased activity. (a) Generalized schematic of EPS methodology. Protein products are derived from various cell types in the form of conditioned media and screened for activity in an in vitro potency assay. […] Recombinant protein products of the enriched gene list are then screened in a potency assay and the candidates with the highest activity are assessed for activity in vivo. (b) In vitro potency assay. This assay entails incubating primary human peripheral blood mononuclear cells (PBMCs) in the presence of protein products (e.g., conditioned medium from a cell) for 16 hours, followed by stimulation of the PBMCs with LPS for five hours, and measurement of IL-10 secretion into the supernatant via ELISA. (c) Time course of IL-10 expression from PBMCs when incubated with either bone marrow stromal cell conditioned medium (BMSC-CM) or unconditioned medium (DMEM) in the potency assay. (d) Comparison of potency assay activity of conditioned medium from normal human dermal fibroblasts (FB-CM), BMSCs (BMSC-CM) and BMSCs preincubated with LPS prior to conditioning (BMSCLPS-CM). * p<0.001 compared to FB-CM, ** p<0.001 compared to BMSC-CM. (e) Schematic of the differential gene expression comparison strategy to select for genes uniquely expressed at high levels in LPS stimulated MSCs (MSCLPS) compared to MSCs and fibroblasts (FBs). Analysis was then conducted on the genes identified to select for genes that were most likely to be responsible for secreted proteins. MSCLPS, LPS stimulated MSC; FB, fibroblast. […]
Leukocytes were prepared from fresh whole human blood, collected and spun in the presence of Ficoll for 30 minutes at 1500×g. […] The resultant supernatants were collected and analyzed via ELISA for human interleukin-10 (IL-10). […]

[3] = tested on: colitic mice (TNBS colitis); experiment: TNBS colitis in mice, colon histopathology; assay type: in vivo; conditions: 3 μg protein twice over 24 h; sacrifice at day 2; compared to vehicle (saline)
Experimental: FIG. 6: Administered MFAP5 and LGALS3BP protect mice from developing TNBS colitis. Mice were presensitized via the skin with 1% TNBS one week prior to intra-rectal administration of 3 mg of TNBS per mouse in a mixture of 50% EtOH and 50% sterile water to induce colitis. Mice were treated with 3 μg each of MFAP5, LGALS3BP and GALNT1 twice over a 24 hour period, once in conjunction with the TNBS administration and once 24 hours later. Mice were then sacrificed at day 2 and tissue collected for analysis. As expected, mice treated with vehicle (saline) developed extensive inflammation of the colon with loss of crypts and frank necrosis of the intestinal epithelium.
MFAP5, LGALS3BP and PENK all protected the colonic epithelium from the hallmark features of TNBS colitis: necrosis, inflammatory infiltrate and loss of crypts. Especially at the microscopic level, the tissue of the MFAP5, LGALS3BP and PENK treated animals looked mostly normal with minor foci of inflammation and edema.

[4] = tested on: BALB/cJ mice challenged with a sub-lethal dose of LPS; experiment: In vivo LPS assay, sub-lethal LPS model: serum cytokines and lung histology
Experimental: (§3) FIG. 8: In vivo hit screen and survival study. (a) Schematic of the in vivo LPS assay. Proteins were administered intraperitoneal (IP) at the concentration that elicited the strongest effect in vitro, followed by IP administration of LPS in conjunction with a second dose of the proteins 16 hours later. Two days after the combined LPS and second protein dose, the mice were sacrificed and assessed for changes in serum cytokines and tissue histology. (b) Serum IL-10 levels of BALB/cJ mice subjected to the in vivo LPS assay. * p<0.001 compared to saline. (c) Serum TNF-α levels of BALB/cJ mice subjected to the in vivo LPS assay. * p<0.001 compared to saline, ** p<0.05 compared to BMSC-CM. (d) Representative micrographs of lung tissue from mice subjected to the in vivo LPS assay stained with hematoxylin and eosin. (e) Survival of mice subjected to a lethal dose of LPS i.p. (350 μg) concurrently with i.p. saline vehicle (bold dark blue line), 5 μg Anti-TNF-α antibody (thin dark blue line), 4 μg PENK (bold light blue line) or 4 μg MFAP5 (thin light blue line). Scale bar=200 μm.
All procedures were performed in accordance with the animal rights policies of the Massachusetts General Hospital Subcommittee on Research Animal Care. For the sub-lethal LPS model, eight week old female BALB/cJ mice (n≧3) (Jackson Laboratories, Bar Harbor, Me.) were administered an initial dose of either vehicle or one of the experimental therapies IP: 200 μL of saline (vehicle), or 3 μg of protein (e.g., GALNT1, LGALS3BP, MFAP5 or PENK) diluted in 200 μL of saline, or 1 mL of 1×BMSC-CM. 16 hours later, mice received a second dose of either vehicle or therapy in conjunction with a dose of 100 μg of LPS (E. coli 0111:B4; Sigma, St. Louis, Mo.) diluted in physiological saline. 48 hours later, mice were sacrificed and tissue and blood were collected for analysis. Serum was tested for the presence of IL-10 and TNF-α via ELISA and lungs, livers and kidneys of the animals were preserved for hematoxylin and eosin staining. For the lethal LPS model, eight week old female BALB/cJ mice (n≧5) were co-administered a lethal dose of LPS (350 μg LPS in 100 μL physiological saline) and either vehicle (negative control), 5 μg anti-TNF-α (positive control; R&D Systems, Minneapolis, Minn.), 4 μg MFAP5 diluted in 100 μL of physiological saline, or 4 μg of PENK diluted in 100 μL of physiological saline. Mice were monitored for survival for seven days (168 hours).

[5] = tested on: BALB/cJ mice challenged with a lethal dose of LPS; experiment: Lethal LPS model, survival; assay type: in vivo; conditions: 350 μg LPS i.p. with 4 μg protein; monitored seven days
Experimental: as §3
All procedures were performed in accordance with the animal rights policies of the Massachusetts General Hospital Subcommittee on Research Animal Care. […] Mice were monitored for survival for seven days (168 hours).

[6] = 3 μg protein or 1 mL 1×BMSC-CM IP, twice, 100 μg LPS, 48 h later, compared to saline

Row | Molecule | IFN-γ production of leukocytes stimulated with LPS (leukocytes; 16 h incubation, LPS 10 μg/ml, medium collected 24 h after LPS) | dose-dependency of IFN-γ production (leukocytes; HAPLN1 diluted in RPMI 1640) | promote IL-10 production or suppress IFN-γ production [1] | increase of IL-10 production compared to 10×MSC-CM [2] | protection from TNBS colitis (colon histopathology) [3] | serum IL-10 levels [4, 6] | serum TNF-α [4, 6] | lung histology (lung protection) ([4]; hematoxylin and eosin, sub-lethal LPS model, compared to vehicle) | TNF-α suppression compared to BMSC-CM ([4]; serum, sub-lethal LPS model) | survival [5]
1 | B1 | independently reduce IFN-γ production | dose-dependency of IFN-γ production over several orders of magnitude | either promote IL-10 production or suppress IFN-γ production |  |  |  |  |  |  | 
2 | B2 |  |  | either promote IL-10 production or suppress IFN-γ production | superior to that induced by 10×MSC-CM | protect the mice from developing acute colitis; also recorded: significant attenuation of colitis; also recorded: protected from developing extensive colonic inflammation | Significantly elevated | significantly suppressed | superior lung protection | superior TNF-α suppression | significant survival benefit
